Measurements reported in doi:10.1101/2022.10.18.512811 (bioRxiv, 2022).
Read-outs that look alike come from different tables or passages of the source. Each block holds one molecule with its values, some of them ahead of it.

Columns and labels:
[1] = target: His-tagged NlpE N-terminal domain (E. coli); assay: cross-linking
[2] = target: the molecule itself; assay: dimer band on denaturing SDS-PAGE
[3] = target: the molecule itself; assay: dimer band on denaturing SDS-PAGE; remark: listed apart in the source

- stoichiometry N [1]: 2
Molecule: His-tagged NlpE N-terminal domain (domain or fragment)

B1: C-terminally His-tagged WT NlpE expressed from pTrc99A (natural protein, E. coli, UniProt P40710 21-236, looked up)
chain: CNNRAEVDTLSPAQAAELKPMPQSWRGVLPCADCEGIETSLFLEKDGTWVMNERYLGAREEPSSFASYGTWARTADKLVLTDSKGEKSYYRAKGDALEMLDREGNPIESQFNYTLEAAQSSLPMTPMTLRGMYFYMADAATFTDCATGKRFMVANNAELERSYLAARGHSEKPVLLSVEGHFTLEGNPDTGAPTKVLAPDTAGKFYPNQDCSSLGQ
modifications: lipid-modified N-terminal cysteine (Cys21)
- stoichiometry N [2]: 2

B2: purified, soluble, C-terminal His×6-tagged NlpE (natural protein, E. coli, UniProt P40710 21-236, looked up)
chain: B1 chain
- stoichiometry N [3]: 2
